Results taken from publication PMC5526994 (Nature Communications, 2017).
One block for each binder: values may come before it.

B7: TBP (159-339) (domain or fragment, human, UniProt P20226 159-339, looked up)
chain: SGIVPQLQNIVSTVNLGCKLDLKTIALRARNAEYNPKRFAAVIMRIREPRTTALIFSSGKMVCTGAKSEEQSRLAARKYARVVQKLGFPAKFLDFKIQNMVGSCDVKFPIRLEGLVLTHQQFSSYEPELFPGLIYRMIKPRIVLLIFVSGKVVLTGAKVRAEIYEAFENIYPILKGFRKTT
notes: source: E. coli Rosetta (DE3)pLysS, purified (HisTrap, heparin, 3C cleavage, SEC)

Columns and labels:
SNAPcΔ;Bdp1-WT = SNAPcΔ;Bdp1-WT (Homo sapiens?;Homo sapiens, UniProt Q5SXM2;Q92966;Q16533;O75971;A6H8Y1 1-516;1-411;1-368;1-98;1-484, |); assay: EMSA; Bdp1 binding to SNAPc-DNA; EMSA: 500 mM ammonium acetate, 50 mM HEPES pH 7.9, 10% glycerol, 1 mM TCEP, 21 °C 20 min, diluted twofold (100 mM ammonium acetate, 40% glycerol) before loading; SNAPc EMSA: 500 mM NaCl, 50 mM HEPES pH 7.9, 20% glycerol, 1 mM TCEP, 21 °C; smFRET lifetimes: T78 buffer, 1 mM DTT, room temperature; conditions: protein: recombinant;recombinant; tags: N-terminal Strep on SNAPc190Δ; His cleaved from SNAPc50;C-terminal His (uncleavable); copies: 1;1;1;1;1; blunt
SNAPcΔ;Bdp1SANT = SNAPcΔ;Bdp1SANT (Homo sapiens?;Homo sapiens, UniProt Q5SXM2;Q92966;Q16533;O75971;A6H8Y1 1-516;1-411;1-368;1-98;241-396, |); assay: EMSA; Bdp1SANT not recruited to SNAPc-DNA; not loss of SNAPc-DNA binding; EMSA: 500 mM ammonium acetate, 50 mM HEPES pH 7.9, 10% glycerol, 1 mM TCEP, 21 °C 20 min, diluted twofold (100 mM ammonium acetate, 40% glycerol) before loading; SNAPc EMSA: 500 mM NaCl, 50 mM HEPES pH 7.9, 20% glycerol, 1 mM TCEP, 21 °C; smFRET lifetimes: T78 buffer, 1 mM DTT, room temperature; conditions: protein: recombinant;recombinant; tags: N-terminal Strep on SNAPc190Δ; His cleaved from SNAPc50;N-terminal His, cleavable; cleaved for crystallization; copies: 1;1;1;1;1; blunt
[1] = target: T1, TBP (core);Brf2 (62-419);Bdp1SANT (Homo sapiens;Homo sapiens;Homo sapiens, UniProt P20226;Q9HAW0;A6H8Y1 159-339;62-419;241-396, ||); assay: EMSA; similar affinity to longer Bdp1 constructs; EMSA: 500 mM ammonium acetate, 50 mM HEPES pH 7.9, 10% glycerol, 1 mM TCEP, 21 °C 20 min, diluted twofold (100 mM ammonium acetate, 40% glycerol) before loading; SNAPc EMSA: 500 mM NaCl, 50 mM HEPES pH 7.9, 20% glycerol, 1 mM TCEP, 21 °C; smFRET lifetimes: T78 buffer, 1 mM DTT, room temperature; conditions: protein: recombinant;recombinant;recombinant; tags: His-tag cleaved (3C);N-terminal His-tag cleaved (3C);N-terminal His, cleavable; cleaved for crystallization; copies: 1;1;1; label: 5' Cy5 on strand 1; blunt
TBP (core);Brf2 (62-419) [2] = target: T2, TBP (core);Brf2 (62-419) (Homo sapiens;Homo sapiens, UniProt P20226;Q9HAW0 159-339;62-419, |); assay: competition; 0-200x unlabelled same-sequence DNA; less stable than with Bdp1SANT; EMSA: 500 mM ammonium acetate, 50 mM HEPES pH 7.9, 10% glycerol, 1 mM TCEP, 21 °C 20 min, diluted twofold (100 mM ammonium acetate, 40% glycerol) before loading; SNAPc EMSA: 500 mM NaCl, 50 mM HEPES pH 7.9, 20% glycerol, 1 mM TCEP, 21 °C; smFRET lifetimes: T78 buffer, 1 mM DTT, room temperature; conditions: protein: recombinant;recombinant; tags: His-tag cleaved (3C);N-terminal His-tag cleaved (3C); copies: 1;1; label: 5' Cy5 on strand 1; blunt
[3] = target: T1, TBP (core);Brf2 (62-419);Bdp1SANT; assay: X-ray crystallography; 2.7 A; EMSA: 500 mM ammonium acetate, 50 mM HEPES pH 7.9, 10% glycerol, 1 mM TCEP, 21 °C 20 min, diluted twofold (100 mM ammonium acetate, 40% glycerol) before loading; SNAPc EMSA: 500 mM NaCl, 50 mM HEPES pH 7.9, 20% glycerol, 1 mM TCEP, 21 °C; smFRET lifetimes: T78 buffer, 1 mM DTT, room temperature; conditions: protein: recombinant;recombinant;recombinant; tags: His-tag cleaved (3C);N-terminal His-tag cleaved (3C);N-terminal His, cleavable; cleaved for crystallization; copies: 1;1;1; 25 bp; template strand S1 has 1 nt 5' and 1 nt 3' overhang
Brf2 (62-419) = target: T3, Brf2 (62-419) (human, UniProt Q9HAW0 62-419); assay: crystal structure; Brf2 (62-419), TBP (159-339) and Bdp1SANT with 25 bp of the human U6 promoter; complex at 60 uM, equimolar TBP and Brf2, 1.1 molar excess of Bdp1SANT, 1.2 excess of dsDNA; hanging drop, PEG 8000, KCl, MES pH 6.5, MgCl2; 2.7 Å; conditions: both partners purified
T3 construct: Brf2 (TFIIB-related factor II), human, residues 62-419; also called TFIIB-related factor II; source: E. coli Rosetta (DE3)pLysS, co-expressed with TBP, purified in isolation (HisTrap, heparin, 3C cleavage, SEC); not shown: His tag, N-terminal, cleaved

[4] = target: T4, Brf2–TBP complex on U6 promoter DNA (Brf2–TBP–DNA complex) (human, UniProt Q9HAW0 62-419; P20226 159-339); assay: as above; conditions: both partners purified
T4 construct: Brf2 (TFIIB-related factor II), human, residues 62-419; The complex stands on double-stranded U6 promoter DNA in every experiment (Cy5-labelled U6_2 38-mer in EMSA; 25 bp fragment with overhangs in the crystal); Bdp1 also contacts the DNA; also called TBP–Brf2; source: E. coli Rosetta (DE3)pLysS, each protein purified, assembled with double-stranded U6 promoter DNA; not shown: His tag, …

TBP (159-339) = target: B7; assay: as above; conditions: both partners purified
[5] = target: T4, Brf2–TBP complex on U6 promoter DNA …; assay: native gel or EMSA; 1.5 pmol Cy5-labelled U6_2 dsDNA, 5 pmol TBP (159-339), 7 pmol Brf2 (62-419), 10 pmol Bdp1 construct in 20 ul; 500 mM ammonium acetate, 50 mM HEPES pH 7.9, 10% glycerol, 1 mM TCEP; 21 °C, 20 min; 4.5% polyacrylamide gel; conditions: both partners purified
TBP (core) = TBP (core) (Homo sapiens, UniProt P20226 159-339); assay: smFRET; 10 nM TBP; complex lifetime 0.29 s; EMSA: 500 mM ammonium acetate, 50 mM HEPES pH 7.9, 10% glycerol, 1 mM TCEP, 21 °C 20 min, diluted twofold (100 mM ammonium acetate, 40% glycerol) before loading; SNAPc EMSA: 500 mM NaCl, 50 mM HEPES pH 7.9, 20% glycerol, 1 mM TCEP, 21 °C; smFRET lifetimes: T78 buffer, 1 mM DTT, room temperature; conditions: protein: recombinant; tags: His-tag cleaved (3C); label: internal ATTO 532 donor and ATTO 647N acceptor; immobilized in TIRF assay; blunt
TBP (core);Brf2 (62-419) [6] = target: T2, TBP (core);Brf2 (62-419); assay: smFRET; complex lifetime 381 ± 33 s (heparin trap); EMSA: 500 mM ammonium acetate, 50 mM HEPES pH 7.9, 10% glycerol, 1 mM TCEP, 21 °C 20 min, diluted twofold (100 mM ammonium acetate, 40% glycerol) before loading; SNAPc EMSA: 500 mM NaCl, 50 mM HEPES pH 7.9, 20% glycerol, 1 mM TCEP, 21 °C; smFRET lifetimes: T78 buffer, 1 mM DTT, room temperature; conditions: protein: recombinant;recombinant; tags: His-tag cleaved (3C);N-terminal His-tag cleaved (3C); copies: 1;1; label: internal ATTO 532 donor and ATTO 647N acceptor; immobilized in TIRF assay; blunt
[7] = target: T1, TBP (core);Brf2 (62-419);Bdp1SANT; assay: smFRET; complex lifetime 547 ± 87 s (heparin trap); EMSA: 500 mM ammonium acetate, 50 mM HEPES pH 7.9, 10% glycerol, 1 mM TCEP, 21 °C 20 min, diluted twofold (100 mM ammonium acetate, 40% glycerol) before loading; SNAPc EMSA: 500 mM NaCl, 50 mM HEPES pH 7.9, 20% glycerol, 1 mM TCEP, 21 °C; smFRET lifetimes: T78 buffer, 1 mM DTT, room temperature; conditions: protein: recombinant;recombinant;recombinant; tags: His-tag cleaved (3C);N-terminal His-tag cleaved (3C);N-terminal His, cleavable; cleaved for crystallization; copies: 1;1;1; label: internal ATTO 532 donor and ATTO 647N acceptor; immobilized in TIRF assay; blunt

T1 sequence (Q9HAW0 62-419, one chain of several): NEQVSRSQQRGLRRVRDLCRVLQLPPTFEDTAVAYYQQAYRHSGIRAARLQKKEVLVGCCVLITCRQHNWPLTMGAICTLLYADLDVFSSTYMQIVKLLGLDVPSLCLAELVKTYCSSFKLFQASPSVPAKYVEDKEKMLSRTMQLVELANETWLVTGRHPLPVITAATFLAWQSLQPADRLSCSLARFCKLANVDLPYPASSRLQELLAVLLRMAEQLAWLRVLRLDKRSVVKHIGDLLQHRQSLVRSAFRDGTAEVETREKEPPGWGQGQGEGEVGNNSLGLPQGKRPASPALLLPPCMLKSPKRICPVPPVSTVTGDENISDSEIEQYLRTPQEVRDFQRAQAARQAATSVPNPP
T4 sequence (Q9HAW0 62-419, one chain of several): as above
T3 sequence (Q9HAW0 62-419): as the sequence (Q9HAW0 62-419, one chain of several) above
T2 sequence (Q9HAW0 62-419, one chain of several): as above
SNAPcΔ;Bdp1SANT, sequence (Q5SXM2 1-516, stated change not applied, chain 1 of 4): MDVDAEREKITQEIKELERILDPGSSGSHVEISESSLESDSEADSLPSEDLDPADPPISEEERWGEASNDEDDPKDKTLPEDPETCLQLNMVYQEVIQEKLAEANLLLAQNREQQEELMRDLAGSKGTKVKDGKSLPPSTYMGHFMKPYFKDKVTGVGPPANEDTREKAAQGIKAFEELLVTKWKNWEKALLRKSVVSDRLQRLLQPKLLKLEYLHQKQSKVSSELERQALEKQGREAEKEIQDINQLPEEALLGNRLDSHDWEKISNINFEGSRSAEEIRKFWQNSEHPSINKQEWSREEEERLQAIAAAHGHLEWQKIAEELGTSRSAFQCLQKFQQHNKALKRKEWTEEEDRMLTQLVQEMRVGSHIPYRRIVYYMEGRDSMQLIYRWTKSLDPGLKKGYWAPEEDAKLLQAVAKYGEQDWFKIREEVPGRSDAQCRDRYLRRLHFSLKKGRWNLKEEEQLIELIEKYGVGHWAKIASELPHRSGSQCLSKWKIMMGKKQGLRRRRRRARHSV
SNAPcΔ;Bdp1SANT, sequence (Q92966 whole entry, stated change not applied, chain 2 of 4): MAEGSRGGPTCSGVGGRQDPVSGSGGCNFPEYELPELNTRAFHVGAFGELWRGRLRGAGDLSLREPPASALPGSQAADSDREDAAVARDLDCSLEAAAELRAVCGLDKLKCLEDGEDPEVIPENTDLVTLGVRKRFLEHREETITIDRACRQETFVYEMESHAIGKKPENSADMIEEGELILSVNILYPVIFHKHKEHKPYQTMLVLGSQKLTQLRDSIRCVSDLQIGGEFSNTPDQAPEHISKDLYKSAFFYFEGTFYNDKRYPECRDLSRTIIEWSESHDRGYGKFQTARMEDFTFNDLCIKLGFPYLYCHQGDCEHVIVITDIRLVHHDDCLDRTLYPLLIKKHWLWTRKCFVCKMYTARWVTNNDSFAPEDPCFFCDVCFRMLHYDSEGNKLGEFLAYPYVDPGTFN
SNAPcΔ;Bdp1SANT, sequence (Q16533 whole entry, stated change not applied, chain 3 of 4): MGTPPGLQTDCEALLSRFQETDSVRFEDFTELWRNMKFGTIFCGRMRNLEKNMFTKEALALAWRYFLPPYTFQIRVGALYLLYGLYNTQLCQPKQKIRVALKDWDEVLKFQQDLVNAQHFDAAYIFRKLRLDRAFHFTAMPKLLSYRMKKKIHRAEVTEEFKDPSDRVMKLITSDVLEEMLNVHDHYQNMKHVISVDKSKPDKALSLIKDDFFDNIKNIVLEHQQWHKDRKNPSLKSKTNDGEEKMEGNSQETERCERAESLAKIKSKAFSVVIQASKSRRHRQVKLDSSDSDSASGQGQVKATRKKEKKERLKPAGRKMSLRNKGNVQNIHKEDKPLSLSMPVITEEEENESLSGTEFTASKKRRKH
SNAPcΔ;Bdp1SANT, sequence (O75971 whole entry, stated change not applied, chain 4 of 4): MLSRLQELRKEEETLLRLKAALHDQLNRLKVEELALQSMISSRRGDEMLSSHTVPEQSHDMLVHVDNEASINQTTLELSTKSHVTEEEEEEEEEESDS

B1: U6_2 PSE probe (dsDNA)
DNA 1: CCATAAGTTATCCTAACCAAAAGATGATTTGA
DNA 2: TCAAATCATCTTTTGGTTAGGATAACTTATGG
- binding result (SNAPcΔ;Bdp1-WT): binds
- binding result (SNAPcΔ;Bdp1SANT): no binding

B2: U6_2 TATA EMSA probe (dsDNA)
DNA 1: ATTTGATTGAAGGGCTTAAAATAGGTGTGACAGTAACC
DNA 2: GGTTACTGTCACACCTATTTTAAGCCCTTCAATCAAAT
- binding result [1]: binds
- binding result (TBP (core);Brf2 (62-419) [2]): binds

B3: U6 promoter crystallization DNA (dsDNA)
DNA 1: TTGAAGGGCTTAAAATAGGTGTGAC
DNA 2: GGTCACACCTATTTTAAGCCCTTCAAC
- binding result [3]: binds

- binding result (Brf2 (62-419)): binds
- binding result [4]: binds
- binding result (TBP (159-339)): binds
B4: Bdp1SANT, human Bdp1 extended SANT domain (residues 241-396), affinity tag removed for crystallization (domain or fragment, UniProt A6H8Y1 241-396, looked up)
chain: GPLLVPRVKVAEDGSIILDEESLTVEVLRTKGPCVVEENDPIFERGSTTTYSSFRKNYYSKPWSNKETDMFFLAISMVGTDFSMIGQLFPHRARIEIKNKFKREEKTNGWRIDKAFQEKRPFDFDFFAHLLQKVLAEEEKRKQKSVKNHSLKEKKS
notes: Bdp1, human, extended SANT domain, residues 241-396; residues 286-382 are built in the electron density; Cloned into pOPINF (cleavable N-terminal His-tag); tag removed with 3C protease for crystallization; source: E. coli BL21-CodonPlus (DE3)-RIL, purified (Ni-NTA, 3C cleavage, heparin, SEC); not shown: His tag, N-terminal, cleaved

- binding result [5]: binds
B5: Bdp1SANT, human Bdp1 extended SANT domain (residues 241-396), His-tagged (domain or fragment, UniProt A6H8Y1 241-396, looked up)
chain: GPLLVPRVKVAEDGSIILDEESLTVEVLRTKGPCVVEENDPIFERGSTTTYSSFRKNYYSKPWSNKETDMFFLAISMVGTDFSMIGQLFPHRARIEIKNKFKREEKTNGWRIDKAFQEKRPFDFDFFAHLLQKVLAEEEKRKQKSVKNHSLKEKKS
notes: Bdp1, human, extended SANT domain, residues 241-396; The tag is kept in the pull-down (held on His SpinTrap); it tells of cleavage only for crystallization; source: E. coli BL21-CodonPlus (DE3)-RIL, purified (Ni-NTA, heparin, SEC); not shown: His tag, N-terminal, kept

B6: U6 snRNA promoter smFRET DNA (dsDNA)
DNA 1: CGGACCAAGATGATTTGATTGAAGGGCTTAAAATAGGTGTGAGAGTAACCCTTGA
DNA 2: TCAAGGGTTACTCTCACACCTATTTTAAGCCCTTCAATCAAATCATCTTGGTCCG
- binding result (TBP (core)): binds
- binding result (TBP (core);Brf2 (62-419) [6]): binds
- binding result [7]: binds

Binder: B7
- binding result (Brf2 (62-419)): binds
